Fewer inactive variants are shown than the library holds.
B1: TPR 5TU (parent)
chain: GGAUCUUCUCGAUCUAACAAAAAAGACAAAUCUGCCACAAAGCUUGAGAGCAUCUUCGGAUGCAGAGGCGGCAGCCUUCGGUGGCGCGAUAGCGCCAACGUUCUCAACUAUGACACGCAAAACGCGUGCUCCGUUGAAUGGAGUUUAUCAUG

Variants of: B1
Test: polymerase ribozyme fitness, log enrichment relative to wild type (log ratio); higher = more active; in vitro selection for triplet polymerase activity
In short: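 Frozen incubation at −7 °C formed the core of a single, triplicate in vitro selection round applied to PCR-built, transcribed mutant libraries of each subunit of a heterodimeric triplet polymerase ribozyme. Extended constructs were gel-excised, captured with streptavidin beads and amplified by RT-PCR, and input and output libraries were Illumina-sequenced with a filter of ≥10 input reads and ≥1 read per output. Fitness is the logarithm of genotype enrichment relative to wild-type enrichment, with inverse-variance-weighted replicate averaging, and the logarithm is base 2.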

Variant | polymerase ribozyme fitness (log ratio)
C105U A120U G124A | 0.877
U109A G141A A142U | ≤ -4.2
A98U C129U | 0.463
A106U U135A | -2.14
G117U G143U | -2.57
U104A A137C | -3.89
C105G U134C G140U | -4.18
A97U U139A U144A | -4.08
C103A G117U | -0.489
C103U U139A | -3.96
C105U U109G G133C | -1.81
C99A A115U A120G | -2.43
A121C G128C | -2.44
A98U A115U A121G U127G | -3.32
C99G C114U | -2.38
C108U A142C | -3.43
U111C G117U | -4.09
C105U A119U G140A U146G | -3.72
U102G G124A | -2.85
A113G U148A | -4.05
C99G A121C U151A | ≤ -4.2
C105G U127C U139G | -2.77
C114U A137U | -4.05
A97U G140U | -3.87

Variant | polymerase ribozyme fitness (log ratio)
A119U A137U | -4.12
C108U A115G | -3.94
C114G G140C G141U | ≤ -4.2
A98G A120G C125A U144A | -1.16
A97G U102A C129A | -3.98
C116U U134C | -0.00566
C105G A138G | -3.88
A120U A121U U144G C149G | -3.46
U104G G126C | 0.0565
U104G G126A | 0.207
C103U A115G | -1.14
G117U U145G | -3.12
C118A A121C U144C | -0.821
A107G U127C A138C | ≤ -4.2
C99U A119C C125G U134G | -3.27
A115U U146G | -2.23
A110U G128A | ≤ -4.2
A115G | -1
A115U | -1.48
A115C | -0.641
U101C C132A | -2.05
A115U G141C | -3.37
C116U A122U | -0.326
U102G C116A | -2.07

Variant | polymerase ribozyme fitness (log ratio)
U102G C105U C125U A150C | -4.12
C103G U151A | ≤ -4.2
A98U G136C | -3.87
C105G A120U | -0.931
C99G G124A G141U | -0.199
C105U A142C | -0.229
A107G G141U | -3.07
C116U U146C | -0.11
G100U U144G | -3.5
C99G C118U U148A | ≤ -4.2
C103G A119C | -1.49
A97G G143A | -1.44
C103A A115C | -2.54
C103A A115U | -3.09
A97U G141C U146G | -2.08
U102G U104C U148A A150U | ≤ -4.2
A115G G124A A150G | -4
U101G G117A G133U | -4.1
A115C U145C | -2.43
C114U A147C | -2.83
A98G G128A | -3.02
C116U U144A | -0.259
A120C C125G G133U | -3.85
C116U G141A | -1.01

Variant | polymerase ribozyme fitness (log ratio)
C99G C149U | -1.74
A97U C99G | -1.6
G112U G141A U148G | ≤ -4.2
A106G C125A | -0.665
C103G G128C | ≤ -4.2
A106G C118U | 0.261
A119G | -0.045
A119U | -0.546
A119C | -0.385
A106C G152U | -2.57
C103G G141U | -3.36
G100A G126A | -4.02
A120G G141A | 1.23
C118G A150G | -2.14
G117U A137G | -1.34
A113U A120G | -1.73
A119U U127C | -2.06
A98G C132G G136C | -4.12
C114A U144G | -3.71
A97U U139C G140C U145G | -3.85
A106G A110U | -3.42
U109G G133C | -2
A119U C129U | 0.265
C118U U148G | -3.62

Variant | polymerase ribozyme fitness (log ratio)
C118U U148A | -2.79
C103A A120C G124A U134A | -3.66
C99U C103A G128A G136U U148G | ≤ -4.2
C118U U145A | -0.179
G117A U144C | -2.9
C118G A122C G141C | -2.43
G117A C123A A150G | -1.18
C114A U139G | -2.32
U101G A107U | -3.84
G100U C131U | ≤ -4.2
A110G G136A | -2.94
U104G U109A G133C | -2.78
C108A G143U U144G | ≤ -4.2
C116U A121U G124U | -2.02
G100U U101G | -3.34
C108G G136A A147C | ≤ -4.2
A121C C125U G143U | -2.41
A98U U101G C129U U139C | ≤ -4.2
C99G U101A | -1.12
U102C A120U G140C | -3.56
A97U U151G | ≤ -4.2
A97G C123G C131G | -2.72
U101A U109G C118U C125G A138G G141A | ≤ -4.2
C118U U146C | -1.27

Variant | polymerase ribozyme fitness (log ratio)
C103G A107G A142G | ≤ -4.2
G100A C129G | ≤ -4.2
A97U | -0.75
C116G A119U | 0.403
A110G A122G | -2.84
C118G U144A | -0.0459
G100C G136U U146G | ≤ -4.2
C103G A120U | -1.5
A98U A137C | -4.19
C116U C118A U139G | 0.554
A106G U146A | -0.139
G112A | -1.96
G112C | -2.68
G112U | -2.77
C99G G117C A122G | -1.51
A106U | -0.23
A106C | -0.467
A106G | 0.398
C99A U101G | -3.16
U102G C116G G133C | -3.6
G117A C123A | 0.34
C108G A122C | ≤ -4.2
G117A A142U | -4.13
U109G C118A C125G | -3.62

Variant | polymerase ribozyme fitness (log ratio)
C103G A121G | -1.32
C114U C118G | -2.88
A97G C116U G133U | ≤ -4.2
C118U A142C | -0.682
C114U C123U | -2.17
A106G A142C | -0.922
C114U C131U | -1.64
A107U A115G | -4.16
C116G U146G | -0.306
C116U C125G | 1.23
C108U C132A U139A | ≤ -4.2
C118G A119G | 0.312
A119G U146A | -0.399
A97U U109G | -1.62
A106G A115U | -1.05
A107C A110G A121G | ≤ -4.2
U101G A113U | -1.25
C99A U148G | ≤ -4.2
C116U A119G | -0.704
C116U A119U | -0.298
C99G A147C | -1.47
C103A A142G | -2.71
C103G U135A | -2.27
